Laboratory results taken from patent US9988424 (DUKE UNIVERSITY, dated 2018).
Read-outs that look alike come from different tables or passages of the source.

Legend:
A.9004SS V1/V2 tags [1] = biological target: T1, A.9004SS V1/V2 tags; assay: ELISA, OD405 at 10 ug/ml
T1 V1V2 tags construct: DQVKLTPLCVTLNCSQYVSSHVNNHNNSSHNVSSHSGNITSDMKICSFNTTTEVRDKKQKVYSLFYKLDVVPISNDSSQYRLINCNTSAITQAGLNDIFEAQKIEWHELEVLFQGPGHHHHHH

AE.con gp140CF = assay: ELISA, OD405 at 10 ug/ml
B.040 gp140C = assay: ELISA, OD405 at 10 ug/ml
B.62357 gp140C = biological target: T2, B.62357 gp140C; assay: ELISA, OD405 at 10 ug/ml
T2 construct: also called B.62357 140C

B.con gp140CF = assay: ELISA, OD405 at 10 ug/ml
C.1086 gp140 = biological target: T3, C.1086 gp140; assay: ELISA, OD405 at 10 ug/ml
T3 construct: also called C.1086gp140C

Con 6 gp120 = assay: ELISA, OD405 at 10 ug/ml
G.con gp140CF = assay: ELISA, OD405 at 10 ug/ml
C.CAP206 gp140CF.12 = C.CAP206 gp140CF.12 (HIV-1); assay: ELISA, OD405 at 10 ug/ml
gp70 B.CaseA2 V1/V2 = biological target: T4, gp70 B.CaseA2 V1/V2 (HIV-1 V1V2 on murine leukemia virus gp70); assay: ELISA, OD405 at 10 ug/ml
T4 construct: also called B.gp70CaseA2 V1/V2; gp70 B.CaseAV1V2
T4 chain: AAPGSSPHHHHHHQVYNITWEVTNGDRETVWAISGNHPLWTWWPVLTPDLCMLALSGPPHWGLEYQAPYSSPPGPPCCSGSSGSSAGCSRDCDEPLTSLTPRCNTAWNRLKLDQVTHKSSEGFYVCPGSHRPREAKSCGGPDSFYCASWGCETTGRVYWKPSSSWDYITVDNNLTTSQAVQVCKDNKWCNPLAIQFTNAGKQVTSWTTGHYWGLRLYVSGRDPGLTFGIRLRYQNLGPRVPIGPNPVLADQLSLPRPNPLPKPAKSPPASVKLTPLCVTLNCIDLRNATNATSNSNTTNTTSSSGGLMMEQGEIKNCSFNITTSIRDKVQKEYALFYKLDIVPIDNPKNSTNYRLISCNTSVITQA

gp70 C.1086 V1/V2 = biological target: T5, gp70 C.1086 V1/V2 (HIV-1 V1V2 on murine leukemia virus gp70); assay: ELISA, OD405 at 10 ug/ml
T5 construct: also called C.gp70 1086C V1V2; C.1086gp70V1V2
T5 chain: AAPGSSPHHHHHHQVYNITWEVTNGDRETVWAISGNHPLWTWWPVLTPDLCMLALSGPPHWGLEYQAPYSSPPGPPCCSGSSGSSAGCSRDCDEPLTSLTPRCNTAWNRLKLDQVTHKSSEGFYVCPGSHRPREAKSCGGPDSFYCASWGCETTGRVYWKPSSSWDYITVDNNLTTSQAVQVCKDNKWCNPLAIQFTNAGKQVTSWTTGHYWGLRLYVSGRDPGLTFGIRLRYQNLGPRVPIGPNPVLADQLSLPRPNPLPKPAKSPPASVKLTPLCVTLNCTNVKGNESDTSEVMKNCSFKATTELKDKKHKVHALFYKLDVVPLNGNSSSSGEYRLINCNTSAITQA

AE.97CNG2XF gp140CF = biological target: T6, AE.97CNG2XF gp140CF (HIV-1); assay: ELISA, OD405 at 10 ug/ml
T6 construct: also called E.97CNGX2F gp140CF

B.HXB/BAL gp140CFI [2] = biological target: T7, B.HXB/BAL gp140CFI (HIV-1, UniProt P04578 33-680); assay: ELISA, OD405 at 10 ug/ml
T7 construct: also called B.HxB/Ba gp140 CFI

SIV CPZ US-1 gp140CF = biological target: T8, SIV CPZ US-1 gp140CF (SIVcpz); assay: ELISA, OD405 at 10 ug/ml
T8 construct: also called US-1 SIVCPZ gp140CF
T8 chain: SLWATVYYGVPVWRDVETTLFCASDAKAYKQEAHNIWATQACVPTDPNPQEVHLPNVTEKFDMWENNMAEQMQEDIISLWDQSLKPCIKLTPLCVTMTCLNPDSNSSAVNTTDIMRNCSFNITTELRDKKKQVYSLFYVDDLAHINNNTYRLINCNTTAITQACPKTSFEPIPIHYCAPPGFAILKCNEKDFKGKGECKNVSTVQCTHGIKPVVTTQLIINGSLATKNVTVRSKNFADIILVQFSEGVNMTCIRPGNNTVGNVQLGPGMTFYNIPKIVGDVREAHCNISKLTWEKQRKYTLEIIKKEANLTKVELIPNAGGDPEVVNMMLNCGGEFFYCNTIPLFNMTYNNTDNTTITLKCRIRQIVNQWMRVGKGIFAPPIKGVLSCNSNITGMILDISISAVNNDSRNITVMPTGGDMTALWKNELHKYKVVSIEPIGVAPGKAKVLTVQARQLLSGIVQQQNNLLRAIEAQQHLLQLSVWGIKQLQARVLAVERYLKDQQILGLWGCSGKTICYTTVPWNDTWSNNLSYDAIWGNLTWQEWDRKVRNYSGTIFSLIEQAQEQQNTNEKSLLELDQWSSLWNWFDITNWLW

92TH023 gp120 [3] = biological target: 92TH023 gp120 (HIV-1)
MN gp120 [4] = biological target: MN gp120 (HIV-1)
92TH023 gp120 [5] = biological target: 92TH023 gp120 (HIV-1); remark: listed apart in the source
MN gp120 [6] = biological target: MN gp120 (HIV-1); remark: listed apart in the source
J08 C.ZM109.V1V2 [7] = biological target: J08 C.ZM109.V1V2 (HIV-1); assay: SPR
1C.FD6-ZM109 = assay: SPR
AE.A244 gD+ gp120 [8] = biological target: T9, AE.A244 gD+ gp120 (HIV-1); assay: ELISA
T9 construct: domain: gp120; also called AE.A244 gp120gD+

J08 A.92RW020V1V2 = J08 A.92RW020V1V2 (HIV-1); assay: ELISA
J08 B.HXB2/BALV1V2 = biological target: T10, J08 B.HXB2/BALV1V2 (HIV-1); assay: ELISA
T10 construct: also called J08 B.HXB/BAL V1V2
T10 chain: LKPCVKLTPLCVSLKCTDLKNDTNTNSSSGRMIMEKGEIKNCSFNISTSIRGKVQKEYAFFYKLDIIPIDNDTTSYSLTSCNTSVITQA

J08 C.ZM109.V1V2 [9] = biological target: J08 C.ZM109.V1V2 (HIV-1); assay: ELISA
A.Q23 V1V2 tags [10] = biological target: A.Q23 V1V2 tags (HIV-1); assay: ELISA
AE.A244 gD+ gp120 [11] = biological target: T9, AE.A244 gD+ gp120; assay: ELISA; remark: listed apart in the source
A.Q23 V1V2 tags [12] = biological target: A.Q23 V1V2 tags (HIV-1); assay: ELISA; remark: listed apart in the source
[13] = biological target: T11, AE.A244 V1/V2 Tags N156QN160Q (HIV-1); assay: ELISA
T11 chain: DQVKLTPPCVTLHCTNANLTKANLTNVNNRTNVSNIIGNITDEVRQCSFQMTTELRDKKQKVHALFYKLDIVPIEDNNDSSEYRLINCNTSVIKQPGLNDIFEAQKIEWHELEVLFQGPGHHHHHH

B. 681-7 gp140C = assay: ELISA, OD405
D.9009SA V1V2 Tags = biological target: T12, D.9009SA V1V2 Tags; assay: ELISA, OD405
T12 Env construct: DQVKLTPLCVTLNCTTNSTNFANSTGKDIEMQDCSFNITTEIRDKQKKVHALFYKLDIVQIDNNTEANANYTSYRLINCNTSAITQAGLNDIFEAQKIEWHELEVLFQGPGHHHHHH

A.9004SS V1/V2 tags [14] = biological target: T1, A.9004SS V1/V2 tags; assay: ELISA, OD405 at 10 ug/ml
B.63521_V1/V2 tags = assay: ELISA, OD405 at 10 ug/ml
B.Case A2 V1/V2 tags [15] = assay: ELISA, OD405 at 10 ug/ml
D.9009SA V1/V2 tags = assay: ELISA, OD405 at 10 ug/ml
A.9004SS V1V2 Tags = biological target: T13, A.9004SS V1V2 Tags; assay: ELISA, OD405 at 10 ug/ml mAb
T13 Env construct: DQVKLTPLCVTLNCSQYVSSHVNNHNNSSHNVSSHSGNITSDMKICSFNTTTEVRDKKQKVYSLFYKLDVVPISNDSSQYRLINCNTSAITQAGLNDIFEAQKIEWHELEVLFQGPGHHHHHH

B.63521 gp140C = assay: ELISA, OD405 at 10 ug/ml mAb
B.63521_V1V2 Tags = biological target: T14, B.63521_V1V2 Tags; assay: ELISA, OD405 at 10 ug/ml mAb
T14 Env construct: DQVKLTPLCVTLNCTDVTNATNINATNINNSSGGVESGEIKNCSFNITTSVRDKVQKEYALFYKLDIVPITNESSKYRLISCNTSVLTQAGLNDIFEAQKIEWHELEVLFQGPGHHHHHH

B.Case A2 V1/V2 Tags [16] = biological target: T15, B.Case A2 V1/V2 Tags; assay: ELISA, OD405 at 10 ug/ml mAb
T15 Env construct: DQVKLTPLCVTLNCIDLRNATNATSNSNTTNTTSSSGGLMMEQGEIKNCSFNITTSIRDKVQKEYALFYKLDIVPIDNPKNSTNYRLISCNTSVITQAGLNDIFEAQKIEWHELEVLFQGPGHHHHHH

B.HXB/BAL gp140CFI [17] = biological target: T7, B.HXB/BAL gp140CFI; assay: ELISA, OD405 at 10 ug/ml mAb

B1: CH01_UA2 (antibody, V domains shown)
VH: EVQLVESGGGVVRPGGSLRLSCAASGFTFDDYGMSWVRQAPGKGLEWVSGINWNGGSTGYADSVKGRFTISRDNAKNSLYLQMNSLRAEDTALYYCARGTDYTIDDQGILYQGSGTFWYFDLWGRGTLVTVSS
VL: not shown
- binding result (A.9004SS V1/V2 tags [1]): no binding (tested: 10 ug/ml)
- binding result (AE.con gp140CF): no binding (tested: 10 ug/ml)
- binding result (B.040 gp140C): no binding (tested: 10 ug/ml)
- binding result (B.62357 gp140C): no binding (tested: 10 ug/ml)
- binding result (B.con gp140CF): no binding (tested: 10 ug/ml)
- binding result (C.1086 gp140): no binding (tested: 10 ug/ml)
- binding result (Con 6 gp120): no binding (tested: 10 ug/ml)
- binding result (G.con gp140CF): no binding (tested: 10 ug/ml)
- binding result (C.CAP206 gp140CF.12): no binding (tested: 10 ug/ml)
- binding result (gp70 B.CaseA2 V1/V2): no binding (tested: 10 ug/ml)
- binding result (gp70 C.1086 V1/V2): no binding (tested: 10 ug/ml)
- binding result (AE.97CNG2XF gp140CF): no binding (tested: 10 ug/ml)
- binding result (B.HXB/BAL gp140CFI [2]): no binding (tested: 10 ug/ml)
- binding result (SIV CPZ US-1 gp140CF): no binding (tested: 10 ug/ml)

B2: PG9 (antibody, V domains shown)
VH: QRLVESGGGVVQPGSSLRLSCAASGFDFSRQGMHWVRQAPGQGLEWVAFIKYDGSEKYHADSVWGRLSISRDNSKDTLYLQMNSLRVEDTATYFCVREAGGPDYRNGYNYYDFYDGYYNYHYMDVWGKGTTVTVSS
VL: QSALTQPASVSGSPGQSITISCNGTSNDVGGYESVSWYQQHPGKAPKVVIYDVSKRPSGVSNRFSGSKSGNTASLTISGLQAEDEGDYYCKSLTSTRRRVFGTGTKLTVL
notes: also called mAb PG9; bnAb PG9
- IC50 (92TH023 gp120 [3]): 0.1 to 1 µM
- IC50 (MN gp120 [4]): 0.01 to 0.1 µM
- IC50 (92TH023 gp120 [5]): 0.1 to 1 µM
- IC50 (MN gp120 [6]): 0.01 to 0.1 µM
- Kd (J08 C.ZM109.V1V2 [7]): 0.318 µM
- Kd (1C.FD6-ZM109): 4.82 µM
- EC50 (AE.A244 gD+ gp120 [8]): 0.0007 µM
- EC50 (J08 A.92RW020V1V2): 0.064 µM
- EC50 (J08 B.HXB2/BALV1V2): 0.149 µM
- EC50 (J08 C.ZM109.V1V2 [9]): 0.00023 µM
- EC50 (A.Q23 V1V2 tags [10]): 0.0149 µM
- EC50 (AE.A244 gD+ gp120 [11]): 0.0007 µM
- EC50 (A.Q23 V1V2 tags [12]): 0.0149 µM
- binding result [13]: no binding (tested: 100 ug/ml)
- binding result (B. 681-7 gp140C): no binding (tested: 10 ug/ml)
- binding result (D.9009SA V1V2 Tags): no binding (tested: 10 ug/ml)
- binding result (A.9004SS V1/V2 tags [14]): binds
- binding result (B.63521_V1/V2 tags): binds
- binding result (B.Case A2 V1/V2 tags [15]): binds
- binding result (D.9009SA V1/V2 tags): no binding (tested: 10 ug/ml)
- binding result (A.9004SS V1V2 Tags): binds
- binding result (B.63521 gp140C): binds
- binding result (B.63521_V1V2 Tags): binds
- binding result (B.Case A2 V1/V2 Tags [16]): binds
- binding result (B.HXB/BAL gp140CFI [17]): binds
